IntAct's records for PubMed 9468140

B1: Retinoblastoma-associated protein (Homo sapiens), P06400 (parent)
chain: MPPKTPRKTAATAAAAAAEPPAPPPPPPPEEDPEQDSGPEDLPLVRLEFEETEEPDFTALCQKLKIPDHVRERAWLTWEKVSSVDGVLGGYIQKKKELWGICIFIAAVDLDEMSFTFTELQKNIEISVHKFFNLLKEIDTSTKVDNAMSRLLKKYDVLFALFSKLERTCELIYLTQPSSSISTEINSALVLKVSWITFLLAKGEVLQMEDDLVISFQLMLCVLDYFIKLSPPMLLKEPYKTAVIPINGSPRTPRRGQNRSARIAKQLENDTRIIEVLCKEHECNIDEVKNVYFKNFIPFMNSLGLVTSNGLPEVENLSKRYEEIYLKNKDLDARLFLDHDKTLQTDSIDSFETQRTPRKSNLDEEVNVIPPHTPVRTVMNTIQQLMMILNSASDQPSENLISYFNNCTVNPKESILKRVKDIGYIFKEKFAKAVGQGCVEIGSQRYKLGVRLYYRVMESMLKSEEERLSIQNFSKLLNDNIFHMSLLACALEVVMATYSRSTSQNLDSGTDLSFPWILNVLNLKAFDFYKVIESFIKAEGNLTREMIKHLERCEHRIMESLAWLSDSPLFDLIKQSKDREGPTDHLESACPLNLPLQNNHTAADMYLSPVRSPKKKGSTTRVNSTANAETQATSAFQTQKPLKSTSLSLFYKKVYRLAYLRLNTLCERLLSEHPELEHIIWTLFQHTLQNEYELMRDRHLDQIMMCSMYGICKVKNIDLKFKIIVTAYKDLPHAVQETFKRVLIKEEEYDSIIVFYNSVFMQRLKTNILQYASTRPPTLSPIPHIPRSPYKFPSSPLRIPGGNIYISPLKSPYKISEGLPTPTKMTPRSRILVSIGESFGTSEKFQKINQMVCNSDRVLKRSAEGSNPPKPLKKLRFDIEGSDEADGSKHLPGESKFQQKLAEMTSTRTRMQKQKMNDSMDTSNKEEK

Variants of: B1
Conditions: with hdac1_human HDAC1, Q13547
Sequence of hdac1_human HDAC1, Q13547 (Q13547 whole entry): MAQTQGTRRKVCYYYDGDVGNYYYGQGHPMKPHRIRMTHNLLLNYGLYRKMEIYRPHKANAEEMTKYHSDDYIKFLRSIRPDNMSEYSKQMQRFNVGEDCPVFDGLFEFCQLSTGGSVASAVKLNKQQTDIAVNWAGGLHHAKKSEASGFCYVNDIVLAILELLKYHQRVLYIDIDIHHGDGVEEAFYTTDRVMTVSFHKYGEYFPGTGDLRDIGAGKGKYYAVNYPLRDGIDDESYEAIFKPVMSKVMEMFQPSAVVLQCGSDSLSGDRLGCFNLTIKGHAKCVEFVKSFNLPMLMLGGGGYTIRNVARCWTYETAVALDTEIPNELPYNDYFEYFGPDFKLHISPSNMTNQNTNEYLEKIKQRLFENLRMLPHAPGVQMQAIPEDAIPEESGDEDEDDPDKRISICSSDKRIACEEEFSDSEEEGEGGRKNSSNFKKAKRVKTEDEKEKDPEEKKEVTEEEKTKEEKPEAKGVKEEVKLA

Variant	effect of a mutation on the interaction
C706F	disrupting interaction
